According to patent publication US20240270846A1 (published 2024):
Where a chain is given by its changes, count along the chain named. Names and notes keep the numbering of the source.

B1: CE115HA000 H chain altered form T57K (antibody, human IgG1, kappa, L234A L235A, N297A, name in Kabat numbering)
heavy: QVQLVESGGGVVQPGRSLRLSCAASGFTFSNAWMHWVRQAPGKGLEWVAQIKAKSNNYAKYYAESVKGRFTISRDDSKNSLYLQMNSLKTEDTAVYYCRYVHYGAYYGVDAWGQGTTVTVSSASTKGPSVFPLAPSSKSTSGGTAALGCLVKDYFPEPVTVSWNSGALTSGVHTFPAVLQSSGLYSLSSVVTVPSSSLGTQTYICNVNHKPSNTKVDKKVEPKSCDKTHTCPPCPAPEAAGGPSVFLFPPKPKDTLMISRTPEVTCVVVDVSHEDPEVKFNWYVDGVEVHNAKTKPREEQYASTYRVVSVLTVLHQDWLNGKEYKCKVSNKALPAPIEKTISKAKGQPREPQVYTLPPSRCELTKNQVSLSCAVKGFYPSDIAVEWESNGQPENNYKTTPPVLDSDGSFFLVSKLTVDKSRWQQGNVFSCSVMHEALHNHYTQKSLSLSPDYKDDDDK
chain: EPKSSDKTHTCPPCPAPELLGGPSVFLFPPKPKDTLMISRTPEVTCVVVDVSHEDPEVKFNWYVDGVEVHNAKTKPREEQYNSTYRVVSVLTVLHQDWLNGKEYKCKVSNKALPAPIEKTISKAKGQPREPQVCTLPPSRDELTKNQVSLWCLVKGFYPSDIAVEWESNGQPENNYKTTPPVLDSDGSFFLYSKLTVDKSRWQQGNVFSCSVMHEALHNRYTQKSLSLSP
light: DIVMTQSPLSLPVTPGEPASISCRSSQSLVHSNRNTYLHWYQQKPGQAPRLLIYKVSNRFSGVPDRFSGSGSGTDFTLKISRVEAEDVGVYYCGQGTQVPYTFGQGTKLEIKRTVAAPSVFIFPPSDEQLKSGTASVVCLLNNFYPREAKVQWKVDNALQSGNSQESVTEQDSKDSTYSLSSTLTLSKADYEKHKVYACEVTHQGLSSPVTKSFNRGEC
notes: one-arm antibody
B2: CE115HA000 H chain altered form T57N (antibody, human IgG1, kappa, L234A L235A, N297A, name in Kabat numbering)
heavy: B1 heavy with K60N
chain: B1 chain
light: B1 light
notes: one-arm antibody
B3: CE115HA000 H chain altered form Y58K (antibody, human IgG1, kappa, L234A L235A, N297A, name in Kabat numbering)
heavy: B1 heavy with K60T, Y61K
chain: B1 chain
light: B1 light
notes: one-arm antibody
B4: CE115HA000 H chain altered form Y59A (antibody, human IgG1, kappa, L234A L235A, N297A, name in Kabat numbering)
heavy: B1 heavy with K60T, Y62A
chain: B1 chain
light: B1 light
notes: one-arm antibody
B5: CE115HA000 H chain altered form Y59E (antibody, human IgG1, kappa, L234A L235A, N297A, name in Kabat numbering)
heavy: B1 heavy with K60T, Y62E
chain: B1 chain
light: B1 light
notes: one-arm antibody
B6: CE115HA000 H chain altered form W33A (antibody, human IgG1, kappa, L234A L235A, N297A, name in Kabat numbering)
heavy: B1 heavy with W33A, K60T
chain: B1 chain
light: B1 light
notes: one-arm antibody
B7: CE115HA000 H chain altered form Y58A (antibody, human IgG1, kappa, L234A L235A, N297A, name in Kabat numbering)
heavy: B1 heavy with K60T, Y61A
chain: B1 chain
light: B1 light
notes: one-arm antibody
B8: CE115HA000 H chain altered form Y55D (antibody, human IgG1, kappa, L234A L235A, N297A, name in Kabat numbering)
heavy: B1 heavy with Y58D, K60T
chain: B1 chain
light: B1 light
notes: one-arm antibody
B9: CE115HA000 H chain altered form Y59D (antibody, human IgG1, kappa, L234A L235A, N297A, name in Kabat numbering)
heavy: B1 heavy with K60T, Y62D
chain: B1 chain
light: B1 light
notes: one-arm antibody
B10: CE115HA000 H chain altered form Y58S (antibody, human IgG1, kappa, L234A L235A, N297A, name in Kabat numbering)
heavy: B1 heavy with K60T, Y61S
chain: B1 chain
light: B1 light
notes: one-arm antibody
B11: CE115HA000 H chain altered form W33F (antibody, human IgG1, kappa, L234A L235A, N297A, name in Kabat numbering)
heavy: B1 heavy with W33F, K60T
chain: B1 chain
light: B1 light
notes: one-arm antibody
B12: CE115HA000 H chain altered form W33L (antibody, human IgG1, kappa, L234A L235A, N297A, name in Kabat numbering)
heavy: B1 heavy with W33L, K60T
chain: B1 chain
light: B1 light
notes: one-arm antibody
B13: CE115HA000 H chain altered form Y58N (antibody, human IgG1, kappa, L234A L235A, N297A, name in Kabat numbering)
heavy: B1 heavy with K60T, Y61N
chain: B1 chain
light: B1 light
notes: one-arm antibody
B14: CE115HA000 H chain altered form W33H (antibody, human IgG1, kappa, L234A L235A, N297A, name in Kabat numbering)
heavy: B1 heavy with W33H, K60T
chain: B1 chain
light: B1 light
notes: one-arm antibody
B15: CE115HA000 H chain altered form V11L (antibody, human IgG1, kappa, L234A L235A, N297A, name in Kabat numbering)
heavy: B1 heavy with V11L, K60T
chain: B1 chain
light: B1 light
notes: one-arm antibody
B16: CE115HA000 H chain altered form W33Y (antibody, human IgG1, kappa, L234A L235A, N297A, name in Kabat numbering)
heavy: B1 heavy with W33Y, K60T
chain: B1 chain
light: B1 light
notes: one-arm antibody
B17: CE115HA000 H chain altered form Y58Q (antibody, human IgG1, kappa, L234A L235A, N297A, name in Kabat numbering)
heavy: B1 heavy with K60T, Y61Q
chain: B1 chain
light: B1 light
notes: one-arm antibody
B18: CE115HA000 H chain altered form Y59S (antibody, human IgG1, kappa, L234A L235A, N297A, name in Kabat numbering)
heavy: B1 heavy with K60T, Y62S
chain: B1 chain
light: B1 light
notes: one-arm antibody
B19: CE115HA000 H chain altered form W33D (antibody, human IgG1, kappa, L234A L235A, N297A, name in Kabat numbering)
heavy: B1 heavy with W33D, K60T
chain: B1 chain
light: B1 light
notes: one-arm antibody
B20: CE115HA000 H chain altered form Y58D (antibody, human IgG1, kappa, L234A L235A, N297A, name in Kabat numbering)
heavy: B1 heavy with K60T, Y61D
chain: B1 chain
light: B1 light
notes: one-arm antibody
B21: CE115HA000 H chain altered form Y55S (antibody, human IgG1, kappa, L234A L235A, N297A, name in Kabat numbering)
heavy: B1 heavy with Y58S, K60T
chain: B1 chain
light: B1 light
notes: one-arm antibody
B22: CE115HA000 H chain altered form Y55G (antibody, human IgG1, kappa, L234A L235A, N297A, name in Kabat numbering)
heavy: B1 heavy with Y58G, K60T
chain: B1 chain
light: B1 light
notes: one-arm antibody
B23: CE115HA000 H chain altered form Y58L (antibody, human IgG1, kappa, L234A L235A, N297A, name in Kabat numbering)
heavy: B1 heavy with K60T, Y61L
chain: B1 chain
light: B1 light
notes: one-arm antibody
B24: GLS3000 H27dA (Kabat) L chain altered form, one-arm antibody with CE115HA000 (antibody, human IgG1, kappa, L234A L235A, N297A, name in Kabat numbering)
heavy: B1 heavy with K60T
chain: B1 chain
light: B1 light with H31A
notes: one-arm antibody
B25: GLS3000 H27dD (Kabat) L chain altered form, one-arm antibody with CE115HA000 (antibody, human IgG1, kappa, L234A L235A, N297A, name in Kabat numbering)
heavy: B1 heavy with K60T
chain: B1 chain
light: B1 light with H31D
notes: one-arm antibody
B26: GLS3000 H27dF (Kabat) L chain altered form, one-arm antibody with CE115HA000 (antibody, human IgG1, kappa, L234A L235A, N297A, name in Kabat numbering)
heavy: B1 heavy with K60T
chain: B1 chain
light: B1 light with H31F
notes: one-arm antibody
B27: GLS3000 H27dI (Kabat) L chain altered form, one-arm antibody with CE115HA000 (antibody, human IgG1, kappa, L234A L235A, N297A, name in Kabat numbering)
heavy: B1 heavy with K60T
chain: B1 chain
light: B1 light with H31I
notes: one-arm antibody
B28: GLS3000 H27dK (Kabat) L chain altered form, one-arm antibody with CE115HA000 (antibody, human IgG1, kappa, L234A L235A, N297A, name in Kabat numbering)
heavy: B1 heavy with K60T
chain: B1 chain
light: B1 light with H31K
notes: one-arm antibody
B29: GLS3000 H27dG (Kabat) L chain altered form, one-arm antibody with CE115HA000 (antibody, human IgG1, kappa, L234A L235A, N297A, name in Kabat numbering)
heavy: B1 heavy with K60T
chain: B1 chain
light: B1 light with H31G
notes: one-arm antibody
B30: GLS3000 H27dE (Kabat) L chain altered form, one-arm antibody with CE115HA000 (antibody, human IgG1, kappa, L234A L235A, N297A, name in Kabat numbering)
heavy: B1 heavy with K60T
chain: B1 chain
light: B1 light with H31E
notes: one-arm antibody
B31: GLS3000 F55A (Kabat) L chain altered form, one-arm antibody with CE115HA000 (antibody, human IgG1, kappa, L234A L235A, N297A, name in Kabat numbering)
heavy: B1 heavy with K60T
chain: B1 chain
light: B1 light with F60A
notes: one-arm antibody

target: T1, CD3 epsilon homodimer protein (UniProt P07766 23-126); assay: SPR Biacore T200, CD3 epsilon homodimer on chip, antibody as analyte;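 further: homodimer amine-coupled to a CM4 sensor chip, run at 25 °C in HBS-EP+ buffer, with kinetic parameters derived in Biacore T200 Evaluation Software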
T1 construct: also called CD3 (CD3 epsilon)
T1 sequence (P07766 23-126): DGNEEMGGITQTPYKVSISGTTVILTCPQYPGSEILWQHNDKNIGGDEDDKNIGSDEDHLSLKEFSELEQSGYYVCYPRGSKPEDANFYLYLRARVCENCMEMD

Binder	KD ratio (KD of CE115HA000 / KD of altered form)
B1	1.22
B2	0.9
B3	0.66
B4	0.74
B5	0.61
B6	30
B7	1.06
B8	0.89
B9	0.66
B10	1.22
B11	0.66
B12	56600
B13	1.86
B14	4.96
B15	0.83
B16	0.69
B17	1.24
B18	0.79
B19	1690
B20	4.81
B21	5.65
B22	0.99
B23	1.21

target: T2, CD3 epsilon homodimer protein (UniProt P07766 23-126); assay: SPR Biacore T200, CD3 epsilon homodimer immobilized; vs unaltered GLS3000;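 further: antibody variants flowed as analyte over CD3 epsilon homodimer amine-coupled to a CM4 chip, at 25 °C in HBS-EP+ running buffer, fitted with Biacore T200 Evaluation Software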
T2 construct: construct not described; homodimer as printed; also called CD3 (CD3 epsilon)
T2 sequence (P07766 23-126): as above

Binder	KD ratio to GLS3000 (Affinity up)
B24	2.57
B25	13600
B26	2.05
B27	7.77
B28	3.8
B29	3.51
B30	42.3
B31	1.16
